Laboratory results as given in PMC10750099, “Mapping immunological and host receptor binding determinants of SARS-CoV spike protein utilizing the Qubevirus platform” (The Journal of Biological Chemistry, 2023).

Biological target: T1, recombinant human angiotensin-converting enzyme 2 (human, UniProt Q9BYF1 18-740)
T1 construct: also called rhACE2; hACE2
Experiment: ELISA
Details: both partners purified

T1 sequence (Q9BYF1 18-740): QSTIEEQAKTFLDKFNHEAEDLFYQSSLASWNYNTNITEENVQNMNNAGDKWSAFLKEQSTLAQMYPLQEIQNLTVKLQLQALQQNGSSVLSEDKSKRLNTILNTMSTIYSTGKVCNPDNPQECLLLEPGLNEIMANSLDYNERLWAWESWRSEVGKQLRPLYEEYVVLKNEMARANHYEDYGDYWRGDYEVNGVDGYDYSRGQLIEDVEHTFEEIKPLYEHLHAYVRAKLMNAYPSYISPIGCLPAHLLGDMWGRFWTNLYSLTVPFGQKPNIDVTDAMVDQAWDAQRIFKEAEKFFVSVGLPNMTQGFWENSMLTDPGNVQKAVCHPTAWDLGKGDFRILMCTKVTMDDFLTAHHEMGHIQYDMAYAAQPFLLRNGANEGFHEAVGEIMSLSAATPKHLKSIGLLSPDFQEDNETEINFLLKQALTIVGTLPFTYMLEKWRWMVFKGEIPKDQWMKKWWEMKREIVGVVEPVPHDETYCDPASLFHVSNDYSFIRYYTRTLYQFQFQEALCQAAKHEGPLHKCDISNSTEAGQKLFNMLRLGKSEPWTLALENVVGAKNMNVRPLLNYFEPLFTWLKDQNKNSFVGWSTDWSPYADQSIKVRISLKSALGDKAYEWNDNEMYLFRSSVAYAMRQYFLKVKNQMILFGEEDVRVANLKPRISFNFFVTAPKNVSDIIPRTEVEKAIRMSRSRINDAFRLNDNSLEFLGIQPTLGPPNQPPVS

B1: recombinant Qβ phage displaying the rhACE2-binding motif S437-492 of SARS-CoV spike fragment F6 on A1 (domain or fragment)
chain: NYKYRYLRHGKLRPFERDISNVPFSPDGKPCTPPALNCYWPLNDYGFYTTTGIGYQ
notes: also called GF6 motif (S437-492)
Question: Does B1 bind?
Answer: Result: binds
